Residue numbers refer to the chain shown, from its start. Numbers in names are those of the source.
T1: SigI1C, C-terminal domain of σI factor SigI1 (C. thermocellum ATCC 27405, UniProt A3DBH0 141-249)
T1 sequence: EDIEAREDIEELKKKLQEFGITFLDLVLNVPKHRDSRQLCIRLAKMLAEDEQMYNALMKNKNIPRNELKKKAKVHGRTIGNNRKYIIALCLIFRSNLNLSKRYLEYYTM

T2: SigI1C (Clostridium thermocellum ATCC 27405, UniProt A3DBH0 141-249)
T2 sequence: T1 sequence

T3: SigI1C K209E/R217E (Clostridium thermocellum ATCC 27405, UniProt A3DBH0 141-249, K209E;R217E)
T3 sequence: T1 sequence with K69E, R77E

B1: RsgI1N, N-terminal cytoplasmic inhibitory domain of anti-σI factor RsgI1, wild type (domain or fragment, C. thermocellum ATCC 27405)
chain: MNRLGIIYEIQGMKAVVLTSEGEFLIIRRRKDMKVGQQVSFENEDIYNVRGK
B2: RsgI1N E9G (domain or fragment, C. thermocellum ATCC 27405)
chain: B1 chain with E9G
B3: RsgI1N E9K (domain or fragment, C. thermocellum ATCC 27405)
chain: B1 chain with E9K
B4: RsgI1N E9K-E21K (domain or fragment, C. thermocellum ATCC 27405)
chain: B1 chain with E9K, E21K
B5: RsgI1N E9K-E23K (domain or fragment, C. thermocellum ATCC 27405)
chain: B1 chain with E9K, E23K
B6: RsgI1N E21K (domain or fragment, C. thermocellum ATCC 27405)
chain: B1 chain with E21K
B7: RsgI1N E23K (domain or fragment, C. thermocellum ATCC 27405)
chain: B1 chain with E23K
B8: RsgI1N F24I (domain or fragment, C. thermocellum ATCC 27405)
chain: B1 chain with F24I
B9: RsgI1N L18F (domain or fragment, C. thermocellum ATCC 27405)
chain: B1 chain with L18F
B10: RsgI1N L18I (domain or fragment, C. thermocellum ATCC 27405)
chain: B1 chain with L18I
B11: RsgI1N V16I (domain or fragment, C. thermocellum ATCC 27405)
chain: B1 chain with V16I
B12: RsgI1N V16K (domain or fragment, C. thermocellum ATCC 27405)
chain: B1 chain with V16K
B13: RsgI1N V35I (domain or fragment, C. thermocellum ATCC 27405)
chain: B1 chain with V35I
B14: RsgI1N V35K (domain or fragment, C. thermocellum ATCC 27405)
chain: B1 chain with V35K
B15: RsgI1N Y8I (domain or fragment, C. thermocellum ATCC 27405)
chain: B1 chain with Y8I
B16: RsgI1N Y8L (domain or fragment, C. thermocellum ATCC 27405)
chain: B1 chain with Y8L
B17: RsgI1N Y8L-E9K-V35R (domain or fragment, C. thermocellum ATCC 27405)
chain: B1 chain with Y8L, E9K, V35R
B18: RsgI1N Y8L-V35R (domain or fragment, C. thermocellum ATCC 27405)
chain: B1 chain with Y8L, V35R
B19: RsgI1N Y8L-E9K (domain or fragment, C. thermocellum ATCC 27405)
chain: B1 chain with Y8L, E9K
B20: PSigI1 -35 region (dsDNA)
DNA 1: ATCGATAATATACACAAAAA
DNA 2: TTTTTGTGTATATTATCGAT

target: T1, SigI1C, C-terminal domain of σI factor …; assay: SPR

First: B1
Second: B2
The Kd of the first is 6.5-fold lower: 0.011 nM for the first, 0.071 nM for the second. The first binds more tightly here.

Compared with B3, B4 is 4.8-fold lower in Kd: 0.097 nM for the first, 0.02 nM for the second.

Compared with B5, B6 is 400-fold lower in Kd: 6.4 nM for the first, 0.016 nM for the second.

Going from B7 to B8, the Kd falls from 0.36 nM to 0.19 nM (1.9-fold). The second binds more tightly here.

Compared with B9, B10 is 220-fold higher in Kd: 0.0031 nM for the first, 0.67 nM for the second.

Going from B11 to B12, the Kd rises from 0.36 nM to 2.4 nM (6.7-fold). The first binds more tightly here.

Going from B13 to B14, the Kd falls from 0.023 nM to 0.0065 nM (3.5-fold).

Going from B15 to B16, the Kd falls from 0.45 nM to 0.084 nM (5.4-fold). The second binds more tightly here.

Compared with B17, B18 is 230-fold lower in Kd: 9.3 nM for the first, 0.04 nM for the second. The second binds more tightly here.

B19 showed a Kd of 0.16 nM.

target: T2, SigI1C; assay: EMSA

B20: binds.

target: T3, SigI1C K209E/R217E; assay: EMSA

B20: no binding.

From publication PMC6582324 (Nucleic Acids Research, 2019)
